Reference: patent US20050118611

Legend:
[1] = target: NF-κB p65 (RelA) homodimer (UniProt Q04206); details: 1:1 stoichiometry; method not stated; cited from earlier work
NF-κB p50 homodimer = NF-κB p50 homodimer (UniProt P19838); details: SELDI also detects p50 on IgκB surface; lost on stringent washing unlike XBY-6
Chain of NF-κB p50 homodimer (P19838 1-433): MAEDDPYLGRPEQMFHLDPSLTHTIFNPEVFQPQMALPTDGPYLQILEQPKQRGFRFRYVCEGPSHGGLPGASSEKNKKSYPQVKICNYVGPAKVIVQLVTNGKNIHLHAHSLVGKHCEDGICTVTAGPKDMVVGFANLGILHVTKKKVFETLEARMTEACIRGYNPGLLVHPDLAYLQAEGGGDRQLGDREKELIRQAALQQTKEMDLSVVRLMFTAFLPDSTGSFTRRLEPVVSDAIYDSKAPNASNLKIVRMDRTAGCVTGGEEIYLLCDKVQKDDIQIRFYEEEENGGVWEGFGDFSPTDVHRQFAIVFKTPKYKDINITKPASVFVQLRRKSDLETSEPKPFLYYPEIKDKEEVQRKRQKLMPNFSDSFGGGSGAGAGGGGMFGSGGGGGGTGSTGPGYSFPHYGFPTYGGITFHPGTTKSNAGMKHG

Chain of NF-κB p65 (RelA) homodimer (Q04206 whole entry): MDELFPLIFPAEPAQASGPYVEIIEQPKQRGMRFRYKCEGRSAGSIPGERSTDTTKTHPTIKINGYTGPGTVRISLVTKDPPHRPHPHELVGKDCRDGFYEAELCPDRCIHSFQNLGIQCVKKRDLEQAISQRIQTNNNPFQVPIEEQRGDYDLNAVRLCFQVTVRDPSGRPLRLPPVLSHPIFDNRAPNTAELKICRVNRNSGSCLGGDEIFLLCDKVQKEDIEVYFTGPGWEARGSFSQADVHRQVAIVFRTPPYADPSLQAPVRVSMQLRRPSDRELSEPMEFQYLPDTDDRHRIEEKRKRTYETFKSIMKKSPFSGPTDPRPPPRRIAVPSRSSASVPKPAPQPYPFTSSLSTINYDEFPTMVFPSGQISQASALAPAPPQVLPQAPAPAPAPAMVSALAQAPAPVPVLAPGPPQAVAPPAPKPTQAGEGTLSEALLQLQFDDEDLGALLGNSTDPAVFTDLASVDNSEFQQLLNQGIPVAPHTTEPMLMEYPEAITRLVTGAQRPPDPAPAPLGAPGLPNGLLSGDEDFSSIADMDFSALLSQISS

## IgκB 22-mer duplex
[1]
  Kd: 4 nM
NF-κB p50 homodimer
  Kd: 4 nM
